Test results reported in article PMC3519786, “Novel Interactions between FOXM1 and CDC25A Regulate the Cell Cycle” (PLoS ONE, 2012).

Molecular target: T1, GAL4-FOXM1 C-terminal fragment (amino acids 330-763) (human, UniProt Q08050-1 330-763)
T1 construct: FOXM1, human, C-terminal fragment, amino acids 330-763; from pCMV-XL5-FOXM1B (Origene); also called C-terminal FOXM1; C-terminus of FOXM1; source: mammalian two-hybrid fusion, U2OS, transfected
T1 sequence (looked up): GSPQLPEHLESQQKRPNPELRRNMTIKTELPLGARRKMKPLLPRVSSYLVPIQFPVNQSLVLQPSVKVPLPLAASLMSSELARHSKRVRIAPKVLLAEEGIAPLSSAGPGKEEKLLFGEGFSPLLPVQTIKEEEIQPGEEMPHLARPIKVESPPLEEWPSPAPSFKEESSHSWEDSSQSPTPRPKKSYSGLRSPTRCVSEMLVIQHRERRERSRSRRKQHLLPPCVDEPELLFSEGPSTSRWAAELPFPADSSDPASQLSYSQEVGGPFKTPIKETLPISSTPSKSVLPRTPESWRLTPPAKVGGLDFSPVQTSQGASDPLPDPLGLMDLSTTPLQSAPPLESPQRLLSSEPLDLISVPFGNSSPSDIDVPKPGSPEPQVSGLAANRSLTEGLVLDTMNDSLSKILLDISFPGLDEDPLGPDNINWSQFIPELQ
Assay: two-hybrid; mammalian two-hybrid (Checkmate, Promega) in U2OS; bait pBIND (GAL4 DNA-binding domain)-FOXM1, prey pACT (VP16 activation domain)-CDC25A, reporter pG5-luc; firefly normalised to Renilla luciferase; 2 days
Details: partners not purified

B1: VP16-CDC25A (natural protein, UniProt P30304 1-524, looked up)
chain: MELGPEPPHRRRLLFACSPPPASQPVVKALFGASAAGGLSPVTNLTVTMDQLQGLGSDYEQPLEVKNNSNLQRMGSSESTDSGFCLDSPGPLDSKENLENPMRRIHSLPQKLLGCSPALKRSHSDSLDHDIFQLIDPDENKENEAFEFKKPVRPVSRGCLHSHGLQEGKDLFTQRQNSAPARMLSSNERDSSEPGNFIPLFTPQSPVTATLSDEDDGFVDLLDGENLKNEEETPSCMASLWTAPLVMRTTNLDNRCKLFDSPSLCSSSTRSVLKRPERSQEESPPGSTKRRKSMSGASPKESTNPEKAHETLHQSLSLASSPKGTIENILDNDPRDLIGDFSKGYLFHTVAGKHQDLKYISPEIMASVLNGKFANLIKEFVIIDCRYPYEYEGGHIKGAVNLHMEEEVEDFLLKKPIVPTDGKRVIVVFHCEFSSERGPRMCRYVRERDRLGNEYPKLHYPELYVLKGGYKEFFMKCQSYCEPPSYRPMHHEDFKEDLKKFRTKSRTWAGEKSKREMYSRLKKL
notes: CDC25A (cell division cycle 25A) dual phosphatase; plasmid bought from Origene; also called pACT-CDC25A; wild-type CDC25A; source: mammalian two-hybrid fusion, U2OS, transfected
- fold above background (normalised luciferase activity): > 60000 fold
